Measurements as given in US9243231B2, “Mutant cytochrome P450 2B6 proteins and uses thereof” (Institut National de la Santé et de la Recherche Médicale …, priority 2011, dated 2016).
Positions count from the first letter of the chain named. Names and notes keep the numbering of the source. “Also recorded” adds a separate entry of the source.

B1: CYP2B6TM: human CYP2B6 triple mutant with substitutions I114V, L199M and V477W (SEQ ID No 1) (protein, listed as Homo sapiens)
chain: MELSVLLFLALLTGLLLLLVQRHPNTHDRLPPGPRPLPLLGNLLQMDRRGLLKSFLRFREKYGDVFTVHLGPRPVVMLCGVEAIREALVDKAEAFSGRGKIAMVDPFFRGYGVVFANGNRWKVLRRFSVTTMRDFGMGKRSVEERIQEEAQCLIEELRKSKGALMDPTFLFQSITANIICSIVFGKRFHYQDQEFLKMMNLFYQTFSLISSVFGQLFELFSGFLKYFPGAHRQVYKNLQEINAYIGHSVEKHRETLDPSAPKDLIDTYLLHMEKEKSNAHSEFSHQNLNLNTLSLFFAGTETTSTTLRYGFLLMLKYPHVAERVYREIEQVIGPHRPPELHDRAKMPYTEAVIYEIQRFSDLLPMGVPHIVTQHTSFRGYIIPKDTEVFLILSTALHDPHYFEKPDAFNPDHFLDANGALKKTEAFIPFSLGKRICLGEGIARAELFLFFTTILQNFSMASPVAPEDIDLTPQECGWGKIPPTYQIRFLPR
B2: CYP2B6wt: wild-type human cytochrome P450 2B6, without reductase (protein, UniProt P20813 1-491, looked up)
Cytochrome P450 2B6: B1 chain with V114I, M199L, W477V
B3: I114V/V477W: previously published CYP2B6 double active site mutant (Nguyen et al 2008) (protein, UniProt P20813 1-491, looked up, variant I114V V477W)
Cytochrome P450 2B6: B1 chain with M199L

Tests used:
[1] = system: TC1-Luc2 mouse pulmonary tumour cells; experiment: In vivo cytotoxicity assay, subcutaneous TC1 tumours in mice treated with CPA; details: CPA 140 mg/kg i.p., C57Bl6 mice, FIG. 14
Protocol: To test the capacity of the triple mutant to enhance the response to CPA in vivo, a mouse model was used. Mouse pulmonary tumour cells (TC1-Luc2) were infected with a lentivirus vector carrying the CYP2B6TM-RED construct and injected subcutaneously into C57Bl6 mice. As a control, uninfected TC1 cells-were injected. TC1-Luc2 cells express luciferase, permitting tumour size to be monitored via bioluminescence.
In initial experiments, 10 mice were injected with CYP2B6TM-RED-TC1 cells and 10 were injected with uninfected TC1 cells. Tumour growth was monitored, and when the tumour size reached approximately 400 mm^3 half of the mice were treated with CPA via intraperitoneal injection at 140 mg/kg. untreated mice were sacrificed when tumour volume reached around 1500 mm^3.

[2] = CPA 4-hydroxylase activity in yeast microsomes; assay type: biochemical; details: for Vmax of CPA-4' hydroxylation / Km / CPA hydroxylase activity Vmax: yeast microsomes; for Vmax of CPA-4' hydroxylation / Km: FIG. 9; for Km: read-out: Km of CPA-4' hydroxylation; for CPA hydroxylase activity Vmax: Table 1
Excerpt: CYP2B6 wt or CYP2B6TM alone or in fusion with RED were expressed in the MR) yeast strain, in which yeast NADPH cytochrome P450 reductase was constitutively expressed. The pYeDP60 plasmids were introduced into intact yeast cells based on a refined lithium acetate-mediated protocol as described in Truan et al, 1993, above. Yeast culture conditions were as described in Bellamine A, Gautier J C, Urban P, Pompon D (1994): Chimeras of the human cytochrome P450 1A family produced in yeast. Accumulation in microsomal membranes, enzyme kinetics and stability. Eur J Biochem 225:1005-13. Yeast microsomes were prepared based on the mechanical disruption method using glass beads as described in Bellamine A, Gautier J C, Urban P, Pompon D. (1994): Chimeras of the human cytochrome P450 1A family produced in yeast. Accumulation in microsomal membranes, enzyme kinetics and stability. Eur J Biochem 225:1005-13. The fluorometric determination of yeast microsomal CPA 4-hydroxylase was adapted from a technique described previously (Roy P, Yu […]. (1999): […] Drug Metab Dispos 27:655-66) for a 96-well microplate with several modifications. Incubations were carried out for 1 h at 28° C. in a total volume of 200 μl and included 100 mM sodium phosphate buffer, pH 7.4, 1 mM EDTA, 10 pmol of CYP2B6 wt or CYP2B6TM or CYP2B6TM-RED with different linkers (microsomal P450 content was spectrally determined by the method of Schoene […], von Oldershausen H F. (1972): Determination of drug metabolizing enzymes in needle biopsies of human liver. Eur J Clin Pharmacol 4:65-73) and 10 mM CPA. Reactions were initiated by adding the NADPH-generating system and stopped by the addition of 200 μl of 10% trichloroacetic acid. After centrifugation at 13,000 g and 4° C. for 15 min to pellet the proteins, 300 μl of the supernatant was transferred to a clean test tube containing 160 μl of the fluorescence mixture (6 mg of 3-aminophenol and 6 mg of hydroxylamine hydrochloride freshly dissolved in 1 ml of 1N HCl). […] After cooling to room temperature, fluorescence reading were performed on a Bio-tek FL600 microplate fluorescence reader (excitation at 350 nm and emission at 515 nm). […] Data were analyzed using Prism software (Graph-Pad Software, Inc., San Diego, Calif.) to calculate kinetic parameters (Km, Vmax), with Vmax values expressed as moles of product formed per minute, normalized to the moles of P450 included in each reaction (turnover number expressed as minutes^-1). Data shown were based on duplicate determinations for each data point.

[3] = double mutant, earlier publication; cited from earlier work

Row | Molecule | Vmax of CPA-4' hydroxylation [2] [min⁻¹] | Km [2] [µM] | CPA hydroxylase activity Vmax [2] | other results
1 | O=P1(N(CCCl)CCCl)NCCCO1 (stereo not drawn) [CPA, cyclophosphamide] | – | – | – | change in tumour volume after CPA, uninfected TC1 tumours [1]: only a modest effect on the uninfected tumour cells and did not produce an overall reduction in tumour volume; also recorded: slowed this rapid increase in uninfected tumour cells but obtained no reduction in overall tumour size
2 | B1 | 107.5 ± 3.4 | 510 ± 80 | 105.5 nmol 4OH-CPA/min/nmol CYP2B6 | change in tumour volume after CPA, tumours expressing CYP2B6TM-RED [1]: dramatic reductions in tumour size; affinity for CPA relative to wild-type enzyme ([2]; greater than wild-type): 8 times; Vmax compared with wild-type enzyme ([2]; in words): retaining the same Vmax; efficiency at metabolising CPA into cytotoxic metabolite relative to wild-type ([2]; more efficient than wild-type protein): 10 times
3 | B2 | 107.3 ± 3.74 | 4330 ± 500 | 62.5 nmol 4OH-CPA/min/nmol CYP2B6 | –
4 | B3 | – | – | – | CPA-4-hydroxylation efficiency compared to wild-type enzyme [3]: four-fold increase
